Assay [1] addresses HLA-A*02:01. The experiment in a line: IEDB peptide-MHC binding, purified MHC/competitive/fluorescence; filed as Kd, often an IC50 or EC50 that approximates it; ≥ and ≤ were set here for values at or beyond the usual limits of such assays.
The target in a further assay is HLA-A*02:03. The assay is described as above.
A further assay addresses HLA-A*02:11. The description is as above.
A further assay has as its target HLA-A*02:12. The assay is described as above.
For a further assay, the target named is HLA-A*02:16. Described as above.
A further assay addresses HLA-A*02:19. The description is as above.
The target in assay [2] is HLA-A*03:01. The assay is described as above. The conditions noted are these: source organism: Entamoeba dispar SAW760.
The next assay concerns the target HLA-A*24:03. Described as above.
The target of assay [3] is HLA-A*26:01. The assay is described as above.
The target of another assay is HLA-A*29:02. Described as above. The conditions noted are these: source organism: Entamoeba dispar SAW760.
Another assay has as its target HLA-A*68:02. The description is as above.
In assay [4] the target is HLA-A*69:01. The description is as above.
Assay [5] deals with HLA-B*15:01. The assay is described as above.
For another assay, the target named is HLA-B*15:17. The assay is described as above. The conditions noted are these: source organism: Entamoeba dispar SAW760.
In a further assay the target is HLA-B*18:01. The assay is described as above.
The target in the next assay is HLA-B*27:03. The description is as above.
The next assay concerns the target HLA-B*39:01. Described as above.
Assay [6] deals with HLA-B*46:01. The assay is described as above.
A further assay deals with HLA-B*51:01. The description is as above.
For the next assay, the target named is HLA-B*57:01. The assay is described as above.
The target of a further assay is HLA-A*01:01. As to the kind of experiment: IEDB peptide-MHC binding, purified MHC/direct/fluorescence; filed as Kd, often an IC50 or EC50 that approximates it; ≥ and ≤ were set here for values at or beyond the usual limits of such assays. The conditions noted are these: source organism: Rickettsia prowazekii.
Assay [7] concerns the target HLA-A*02:01. The assay is described as above. The conditions noted are these: source organism: Rickettsia prowazekii.
In assay [8] the target is HLA-A*03:01. The assay is described as above. The conditions noted are these: source organism: Rickettsia prowazekii.
For a further assay, the target named is HLA-A*11:01. The description is as above. The conditions noted are these: source organism: Rickettsia prowazekii.
In assay [9] the target is HLA-A*26:01. Described as above. The conditions noted are these: source organism: Rickettsia prowazekii.
In assay [10] the target is HLA-A*31:01. Described as above. The conditions noted are these: source organism: Rickettsia prowazekii.
Assay [11] addresses HLA-A*69:01. The assay is described as above. The conditions noted are these: source organism: Rickettsia prowazekii.
In another assay the target is HLA-B*07:02. The description is as above. The conditions noted are these: source organism: Rickettsia prowazekii.
For the next assay, the target named is HLA-B*08:01. Described as above. The conditions noted are these: source organism: Rickettsia prowazekii.
Assay [12] concerns the target HLA-B*15:01. The assay is described as above. The conditions noted are these: source organism: Rickettsia prowazekii.
For the next assay, the target named is HLA-B*15:02. The assay is described as above. The conditions noted are these: source organism: Rickettsia prowazekii.
The next assay has as its target HLA-B*27:05. The description is as above. The conditions noted are these: source organism: Rickettsia prowazekii.
In another assay the target is HLA-B*35:01. Described as above. The conditions noted are these: source organism: Rickettsia prowazekii.
A further assay addresses HLA-B*40:01. The description is as above. The conditions noted are these: source organism: Rickettsia prowazekii.
A further assay has as its target HLA-B*44:02. The assay is described as above. The conditions noted are these: source organism: Rickettsia prowazekii.
Assay [13] deals with HLA-B*46:01. The assay is described as above. The conditions noted are these: source organism: Rickettsia prowazekii.
The target of the next assay is HLA-B*58:01. The assay is described as above. The conditions noted are these: source organism: Rickettsia prowazekii.
Assay [14] concerns the target HLA-A*31:01. As to the kind of experiment: IEDB peptide-MHC binding, purified MHC/competitive/fluorescence; filed as Kd, often an IC50 or EC50 that approximates it; ≥ and ≤ were set here for values at or beyond the usual limits of such assays. The conditions noted are these: source organism: Coxiella burnetii RSA 331.
Setting [15] is: source organism: Entamoeba dispar SAW760.
[16] abbreviates: source organism: Coxiella burnetii RSA 331.
The mark [17] stands for this setting: source organism: Deerpox virus W-848-83.

As for FELLHFISS, the Kd with HLA-A*02:01 [1] (setting [15]), with HLA-A*02:03 (setting [15]), with HLA-A*02:11 (setting [15]), with HLA-A*02:12 (setting [15]), with HLA-A*02:16 (setting [15]) and with HLA-A*02:19 (setting [15]) was not below 20 µM throughout. For the same sequence, the dissociation constant (Kd) with HLA-A*03:01 [2], with HLA-A*24:03 (setting [15]), with HLA-A*26:01 [3] (setting [15]), in the assay with HLA-A*29:02, in the assay with HLA-A*68:02 (setting [15]) and with HLA-A*69:01 [4] (setting [15]) was not below 20 µM throughout. Also, the Kd is not below 20 µM with HLA-B*15:01 [5] (setting [15]); not below 20 µM with HLA-B*15:17; 0.564 µM in the assay with HLA-B*18:01 (setting [15]); not below 20 µM in the assay with HLA-B*27:03 (setting [15]); not below 20 µM in the assay with HLA-B*39:01 (setting [15]); not below 20 µM with HLA-B*46:01 [6] (setting [15]). The Kd with HLA-B*51:01 (setting [15]) and with HLA-B*57:01 (setting [15]) was not below 20 µM in each case.

Regarding YGGKKAVTY, the Kd with HLA-A*01:01, in the assay with HLA-A*02:01 [7], with HLA-A*03:01 [8], with HLA-A*11:01, with HLA-A*26:01 [9] and with HLA-A*31:01 [10] was not below 20 µM in each case. Moreover, the Kd was not below 20 µM with HLA-A*69:01 [11]; not below 20 µM in the assay with HLA-B*07:02; not below 20 µM with HLA-B*08:01; 1.4 µM with HLA-B*15:01 [12]; not below 20 µM in the assay with HLA-B*15:02; not below 20 µM with HLA-B*27:05. The Kd in the assay with HLA-B*35:01 is 0.249 µM; with HLA-B*40:01, not below 20 µM; with HLA-B*44:02, not below 20 µM; with HLA-B*46:01 [13], not below 20 µM; with HLA-B*58:01, not below 20 µM.

As for HMNKLPLAK, the Kd with HLA-A*02:01 [1] (setting [16]), in the assay with HLA-A*02:03 (setting [16]), in the assay with HLA-A*02:11 (setting [16]), with HLA-A*02:12 (setting [16]), with HLA-A*02:16 (setting [16]) and in the assay with HLA-A*02:19 (setting [16]) was not below 20 µM in each case. Moreover, the Kd is not below 20 µM with HLA-A*24:03 (setting [16]); not below 20 µM with HLA-A*26:01 [3] (setting [16]); 0.223 µM with HLA-A*31:01 [14]; not below 20 µM in the assay with HLA-A*68:02 (setting [16]); not below 20 µM with HLA-A*69:01 [4] (setting [16]); not below 20 µM with HLA-B*15:01 [5] (setting [16]). Further, the dissociation constant (Kd) with HLA-B*18:01 (setting [16]), with HLA-B*27:03 (setting [16]), with HLA-B*39:01 (setting [16]), in the assay with HLA-B*46:01 [6] (setting [16]), in the assay with HLA-B*51:01 (setting [16]) and in the assay with HLA-B*57:01 (setting [16]) was not below 20 µM in each case.

Turning to YVAGITLTH, the Kd with HLA-A*02:01 [1] (setting [17]), with HLA-A*02:03 (setting [17]), with HLA-A*02:11 (setting [17]), with HLA-A*02:12 (setting [17]), with HLA-A*02:16 (setting [17]) and with HLA-A*02:19 (setting [17]) was not below 20 µM throughout. The Kd in the assay with HLA-A*69:01 [4] (setting [17]), with HLA-B*18:01 (setting [17]), in the assay with HLA-B*27:03 (setting [17]), in the assay with HLA-B*39:01 (setting [17]), with HLA-B*51:01 (setting [17]) and with HLA-B*57:01 (setting [17]) was not below 20 µM in each case.

The Kd is the free concentration of one partner at which half of the binding sites on the other are occupied at equilibrium, for simple one-to-one binding.
